Reference: patent publication US20070244048A1 (published 2007)
No end group written: not given here.

Tests used:
human NMUR1 [1] = target: T1, human NMUR1 (human, UniProt Q9HB89 1-426); assay: cell-based or functional assay
T1 sequence (looked up): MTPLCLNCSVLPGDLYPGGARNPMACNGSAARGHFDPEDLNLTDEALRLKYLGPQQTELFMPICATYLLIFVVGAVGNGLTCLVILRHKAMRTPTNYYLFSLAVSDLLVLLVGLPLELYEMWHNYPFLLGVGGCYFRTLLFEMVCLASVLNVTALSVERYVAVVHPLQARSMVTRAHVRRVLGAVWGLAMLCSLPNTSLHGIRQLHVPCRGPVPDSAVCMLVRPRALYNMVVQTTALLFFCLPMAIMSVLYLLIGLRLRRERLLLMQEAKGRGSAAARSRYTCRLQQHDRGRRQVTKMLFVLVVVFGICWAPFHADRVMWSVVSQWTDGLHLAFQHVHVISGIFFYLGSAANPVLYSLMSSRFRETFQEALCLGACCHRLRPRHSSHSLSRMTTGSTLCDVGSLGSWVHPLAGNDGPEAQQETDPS

human NMUR2 [2] = target: T2, human NMUR2 (human, UniProt Q9GZQ4 1-415); assay: cell-based or functional assay
mouse NMUR1-ATG = target: T3, mouse NMUR1-ATG (mouse, UniProt O55040 1-428); assay: cell-based or functional assay
T3 sequence (looked up): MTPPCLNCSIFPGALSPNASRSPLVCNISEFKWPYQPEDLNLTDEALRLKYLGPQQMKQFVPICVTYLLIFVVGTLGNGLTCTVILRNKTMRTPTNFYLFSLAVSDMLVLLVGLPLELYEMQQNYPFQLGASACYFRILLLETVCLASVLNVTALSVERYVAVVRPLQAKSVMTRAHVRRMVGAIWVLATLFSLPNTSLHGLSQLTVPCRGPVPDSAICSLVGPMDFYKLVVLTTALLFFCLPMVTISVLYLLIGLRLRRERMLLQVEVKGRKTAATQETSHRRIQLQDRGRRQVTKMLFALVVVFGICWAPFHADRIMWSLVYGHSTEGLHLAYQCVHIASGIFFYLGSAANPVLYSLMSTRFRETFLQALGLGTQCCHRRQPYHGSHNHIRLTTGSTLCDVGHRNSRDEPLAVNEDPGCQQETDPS

mouse NMUR1-CTG [3] = target: T4, mouse NMUR1-CTG (mouse, UniProt O55040 1-428); assay: cell-based or functional assay
T4 sequence (looked up): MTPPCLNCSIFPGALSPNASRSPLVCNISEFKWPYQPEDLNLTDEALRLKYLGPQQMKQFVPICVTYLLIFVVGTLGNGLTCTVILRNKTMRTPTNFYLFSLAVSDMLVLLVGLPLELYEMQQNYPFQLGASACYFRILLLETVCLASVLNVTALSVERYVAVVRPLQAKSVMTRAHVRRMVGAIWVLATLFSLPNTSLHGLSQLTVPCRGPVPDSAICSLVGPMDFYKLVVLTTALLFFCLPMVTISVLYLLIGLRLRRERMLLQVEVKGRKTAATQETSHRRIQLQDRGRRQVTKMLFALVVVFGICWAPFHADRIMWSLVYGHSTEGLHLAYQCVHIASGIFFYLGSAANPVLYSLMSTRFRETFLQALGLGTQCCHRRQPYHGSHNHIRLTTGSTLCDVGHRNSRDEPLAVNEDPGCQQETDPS

mouse NMUR2 = mouse NMUR2 (mouse, UniProt Q8BZ39 1-395); assay: cell-based or functional assay
rat NMUR1-ATG [4] = target: T5, rat NMUR1-ATG (rat, UniProt Q9JJI5 1-425); assay: cell-based or functional assay
T5 sequence (looked up): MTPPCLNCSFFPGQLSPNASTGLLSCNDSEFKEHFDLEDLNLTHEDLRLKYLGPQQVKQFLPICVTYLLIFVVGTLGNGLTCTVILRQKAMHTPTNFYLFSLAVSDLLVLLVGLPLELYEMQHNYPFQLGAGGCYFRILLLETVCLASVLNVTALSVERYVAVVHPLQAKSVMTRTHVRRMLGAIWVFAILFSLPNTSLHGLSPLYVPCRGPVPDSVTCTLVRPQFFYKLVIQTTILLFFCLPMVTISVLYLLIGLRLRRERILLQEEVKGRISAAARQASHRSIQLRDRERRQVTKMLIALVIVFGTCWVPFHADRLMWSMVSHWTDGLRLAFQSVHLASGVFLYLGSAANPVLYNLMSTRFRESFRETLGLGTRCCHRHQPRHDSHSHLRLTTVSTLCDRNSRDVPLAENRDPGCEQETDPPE

rat NMUR1-TTG = target: T6, rat NMUR1-TTG (rat, UniProt Q9JJI5 1-425); assay: cell-based or functional assay
T6 sequence (looked up): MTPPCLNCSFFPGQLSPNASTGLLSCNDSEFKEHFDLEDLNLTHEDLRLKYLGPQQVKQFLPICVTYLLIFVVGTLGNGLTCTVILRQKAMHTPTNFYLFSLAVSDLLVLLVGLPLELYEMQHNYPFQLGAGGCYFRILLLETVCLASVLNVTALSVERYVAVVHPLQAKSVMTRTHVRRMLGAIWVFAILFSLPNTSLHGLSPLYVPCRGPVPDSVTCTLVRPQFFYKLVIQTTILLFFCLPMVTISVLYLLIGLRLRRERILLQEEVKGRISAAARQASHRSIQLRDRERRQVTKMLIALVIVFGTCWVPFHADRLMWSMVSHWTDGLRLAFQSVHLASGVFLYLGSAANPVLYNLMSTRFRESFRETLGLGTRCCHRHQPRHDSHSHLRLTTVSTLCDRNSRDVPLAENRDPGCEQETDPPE

rat NMUR2 = rat NMUR2 (rat, UniProt Q9ESQ4 1-395); assay: cell-based or functional assay
human NMUR1 [5] = target: T1, human NMUR1; assay: 125I-hNMU-25 displacement, cell membranes
human NMUR2 [6] = target: T2, human NMUR2; assay: 125I-hNMU-25 displacement, cell membranes
mouse NMUR1-CTG [7] = target: T4, mouse NMUR1-CTG; assay: 125I-hNMU-25 displacement, cell membranes
rat NMUR1-ATG [8] = target: T5, rat NMUR1-ATG; assay: 125I-hNMU-25 displacement, cell membranes
human NMUR1 [9] = target: T1, human NMUR1; assay: 125I-hNMU-25 displacement, HEK cell membranes
Procedure, shortened: (§1)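 HEK cell membranes (2-5 μg) incubated with […] ¹²⁵I-hNMU-25 and peptides for 80 min at room temperature in TrisCl pH 7.4 buffer with MgCl₂, EDTA, bacitracin and phosphoramidon. Bound ligand collected by filtration and scintillation counting; nonspecific binding with 1 μM hNMU-25. IC₅₀ from curve fitting.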

human NMUR2 [10] = target: T2, human NMUR2; assay: 125I-hNMU-25 displacement, HEK cell membranes
Procedure, shortened: as §1

T2 sequence (Q9GZQ4 whole entry): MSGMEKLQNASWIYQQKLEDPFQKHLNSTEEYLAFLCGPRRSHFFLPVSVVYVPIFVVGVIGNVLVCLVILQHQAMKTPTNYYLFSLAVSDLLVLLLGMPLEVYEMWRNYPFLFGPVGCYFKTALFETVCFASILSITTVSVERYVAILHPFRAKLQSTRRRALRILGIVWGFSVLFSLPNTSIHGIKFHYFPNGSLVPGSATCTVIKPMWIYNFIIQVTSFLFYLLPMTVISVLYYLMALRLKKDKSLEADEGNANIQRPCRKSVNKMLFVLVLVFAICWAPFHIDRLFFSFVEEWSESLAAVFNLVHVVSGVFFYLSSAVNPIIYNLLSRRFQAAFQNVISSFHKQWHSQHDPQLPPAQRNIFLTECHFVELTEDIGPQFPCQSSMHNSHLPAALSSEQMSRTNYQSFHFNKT
Sequence of mouse NMUR2 (Q8BZ39 whole entry): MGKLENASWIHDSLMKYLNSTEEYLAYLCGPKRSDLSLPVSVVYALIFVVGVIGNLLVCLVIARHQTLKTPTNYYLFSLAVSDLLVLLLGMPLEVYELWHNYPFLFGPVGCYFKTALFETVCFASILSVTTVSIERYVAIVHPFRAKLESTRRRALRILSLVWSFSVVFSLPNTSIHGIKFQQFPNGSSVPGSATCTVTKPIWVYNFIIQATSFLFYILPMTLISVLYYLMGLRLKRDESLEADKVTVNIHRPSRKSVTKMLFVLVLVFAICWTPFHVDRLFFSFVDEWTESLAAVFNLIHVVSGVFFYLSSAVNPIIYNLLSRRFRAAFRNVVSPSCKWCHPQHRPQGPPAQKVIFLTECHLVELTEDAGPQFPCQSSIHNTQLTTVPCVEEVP
Sequence of rat NMUR2 (Q9ESQ4 whole entry): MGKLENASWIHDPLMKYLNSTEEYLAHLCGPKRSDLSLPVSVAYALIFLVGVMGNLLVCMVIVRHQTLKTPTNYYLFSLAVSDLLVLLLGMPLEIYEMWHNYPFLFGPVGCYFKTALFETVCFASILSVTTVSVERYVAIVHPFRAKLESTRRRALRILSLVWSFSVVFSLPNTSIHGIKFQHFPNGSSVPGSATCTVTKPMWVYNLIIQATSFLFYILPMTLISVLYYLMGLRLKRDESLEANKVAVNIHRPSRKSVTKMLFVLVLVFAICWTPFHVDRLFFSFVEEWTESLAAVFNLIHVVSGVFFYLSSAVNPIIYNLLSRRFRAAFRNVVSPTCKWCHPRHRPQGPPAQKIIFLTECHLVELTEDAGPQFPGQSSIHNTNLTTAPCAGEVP

B1: human NMU-25 (peptide)
peptide: FRVDEEFQSPFASQSRGYFLFRPRN-NH2
notes: also called hNMU-25; native hNMU
IC50 (nM), functional (human NMUR1 [1]): 0.2 nM | IC50 (nM), functional (human NMUR2 [2]): 0.8 nM | IC50 (nM), functional (mouse NMUR1-ATG): 0.9 nM | IC50 (nM), functional (mouse NMUR1-CTG [3]): 2.9 nM | IC50 (nM), functional (mouse NMUR2): 0.2 nM | IC50 (nM), functional (rat NMUR1-ATG [4]): 1.3 nM | IC50 (nM), functional (rat NMUR1-TTG): 1 nM | IC50 (nM), functional (rat NMUR2): 1.6 nM | IC50 (human NMUR1 [5]): 0.14 nM | IC50 (human NMUR2 [6]): 0.056 nM | IC50 (mouse NMUR1-CTG [7]): 0.15 nM | IC50 (rat NMUR1-ATG [8]): 1.2 nM | % activity (binding) (human NMUR1 [9]): 100% | IC50 (human NMUR1 [9]): 0.47 nM | % activity (binding) (human NMUR2 [10]): 100% | IC50 (human NMUR2 [10]): 0.19 nM
